Measured values from publication PMC3373015.

Columns and labels:
Asp38 [1] = biological target: T1, Asp38 (UniProt position 120, TFRLLDVDTPE); experiment: stability; settings: folded/unfolded equilibrium, no ligand
Asp38 [2] = biological target: T1, Asp38; experiment: NMR; settings: 298 K; 100 mM KCl, 0.5 mM NaN3 (no buffer stated); folded, no ligand
Glu38 [3] = biological target: T2, Glu38 (UniProt position 120, TFRLLEVDTPE); experiment: stability; settings: folded/unfolded equilibrium, no ligand
Asp143 = Asp143 (UniProt position 225, NIWSEDNADSG); experiment: NMR
Glu142 = Glu142 (UniProt position 224, LNIWSEDNADS); experiment: NMR
Glu135 = Glu135 (UniProt position 217, AQAKKEKLNIW); experiment: NMR
Asp40 [4] = biological target: Asp40 (UniProt position 122, RLLEVDTPETK); experiment: NMR; settings: 298 K; 100 mM KCl, 0.5 mM NaN3 (no buffer stated); folded, no ligand
Glu52 = Glu52 (UniProt position 134, PKKFNEKYGPE); experiment: NMR
Glu122 = Glu122 (UniProt position 204, GNNTHEQLLRK); experiment: NMR
Glu43 [5] = biological target: Glu43 (UniProt position 125, EVDTPETKHPK); experiment: NMR; settings: 298 K; 100 mM KCl, 0.5 mM NaN3 (no buffer stated); folded, no ligand
Asp77 = Asp77 (UniProt position 159, IEVEFDKGQRT); experiment: NMR
Glu38 [6] = biological target: T2, Glu38; experiment: NMR; settings: 298 K; 100 mM KCl, 0.5 mM NaN3 (no buffer stated); folded, no ligand
Glu57 = Glu57 (UniProt position 139, EKYGPEASAFT); experiment: NMR
Glu10 = Glu10 (UniProt position 92, KKLHKEPATLI); experiment: NMR
Asp19 = Asp19 (UniProt position 101, LIKAIDGDTVK); experiment: NMR
Asp21 = Asp21 (UniProt position 103, KAIDGDTVKLM); experiment: NMR
Asp95 = Asp95 (UniProt position 177, AYIYADGKMVN); experiment: NMR
Asp83 = Asp83 (UniProt position 165, KGQRTDKYGRG); experiment: NMR
Asp146 = Asp146 (UniProt position 228, SEDNADSGQ--); experiment: NMR
Glu129 = Glu129 (UniProt position 211, LLRKAEAQAKK); experiment: NMR
Glu75 = Glu75 (UniProt position 157, KKIEVEFDKGQ); experiment: NMR
Glu73 = Glu73 (UniProt position 155, NAKKIEVEFDK); experiment: NMR
Glu67 = Glu67 (UniProt position 149, TKKMVENAKKI); experiment: NMR
Glu101 = Glu101 (UniProt position 183, GKMVNEALVRQ); experiment: NMR
Lys38 = Lys38 (UniProt position 120, TFRLLKVDTPE); experiment: stability; settings: cited from earlier work
Glu43 [7] = biological target: Glu43 (UniProt position 125, KVDTPETKHPK); experiment: NMR; settings: 298 K; 100 mM KCl, 0.5 mM NaN3 (no buffer stated); folded, no ligand
Asp40 [8] = biological target: Asp40 (UniProt position 122, RLLKVDTPETK); experiment: NMR; settings: 298 K; 100 mM KCl, 0.5 mM NaN3 (no buffer stated); folded, no ligand
His8 = His8 (UniProt position 90, STKKLHKEPAT); settings: folded Δ+PHS nuclease; cited from earlier work
Asp40 [9] = biological target: Asp40 (UniProt position 122, RLLLVDTPETK); experiment: NMR; settings: folded Δ+PHS nuclease; cited from earlier work
Glu43 [10] = biological target: Glu43 (UniProt position 125, LVDTPETKHPK); experiment: NMR; settings: folded Δ+PHS nuclease; cited from earlier work
[11] = 298 K, 100 mM KCl, 0.5 mM NaN3 (no buffer stated), folded, no ligand
[12] = folded Δ+PHS nuclease, cited from earlier work

Substance: Staphylococcal nuclease Δ+PHS/L38D (Staphylococcus aureus; G50F;V51N;P117G;H124L;S128A;del44-49;L38D)
- pKa (Asp38 [1]): 6.8 +/- 0.3
- pKa (Asp38 [2]): 7.2

Substance: Staphylococcal nuclease Δ+PHS/L38D/E122Q (Staphylococcus aureus; G50F;V51N;P117G;H124L;S128A;del44-49;L38D;E122Q)
- pKa (Asp38 [1]): 6.9 +/- 0.3
- pKa (Asp38 [2]): 6.6

Substance: Staphylococcal nuclease Δ+PHS/L38E (Staphylococcus aureus; G50F;V51N;P117G;H124L;S128A;del44-49;L38E)
- pKa (Glu38 [3]): 7.0 +/- 0.3
- pKa (Asp143; [11]): 3.8
- pKa (Glu142; [11]): 4.5
- pKa (Glu135; [11]): 3.8
- pKa (Asp40 [4]): 3.9
- pKa (Glu52; [11]): 4.0
- pKa (Glu122; [11]): 3.8
- pKa (Glu43 [5]): 4.4
- pKa (Asp77; [11]): < 2.5
- pKa (Glu38 [6]): 7.0
- pKa (Glu57; [11]): 3.6
- pKa (Glu10; [11]): 3.1
- pKa (Asp19; [11]): < 2.5
- pKa (Asp21; [11]): 6.6
- pKa (Asp95; [11]): 2.3
- pKa (Asp83; [11]): < 2.5
- pKa (Asp146; [11]): 3.9
- pKa (Glu129; [11]): 3.9
- pKa (Glu75; [11]): 3.3
- pKa (Glu73; [11]): 3.4
- pKa (Glu67; [11]): 3.8
- pKa (Glu101; [11]): 3.9

Substance: Staphylococcal nuclease Δ+PHS/L38E/D77N (Staphylococcus aureus; G50F;V51N;P117G;H124L;S128A;del44-49;L38E;D77N)
- pKa (Glu38 [6]): 6.1

Substance: Staphylococcal nuclease Δ+PHS/L38E/E122D (Staphylococcus aureus; G50F;V51N;P117G;H124L;S128A;del44-49;L38E;E122D)
- pKa (Glu38 [6]): 7.4

Substance: Staphylococcal nuclease Δ+PHS/L38E/E122Q (Staphylococcus aureus; G50F;V51N;P117G;H124L;S128A;del44-49;L38E;E122Q)
- pKa (Glu38 [6]): 6.2

Substance: Staphylococcal nuclease Δ+PHS/L38E/R126Q (Staphylococcus aureus; G50F;V51N;P117G;H124L;S128A;del44-49;L38E;R126Q)
- pKa (Glu38 [6]): 7.2

Substance: Staphylococcal nuclease Δ+PHS/L38K (Staphylococcus aureus; G50F;V51N;P117G;H124L;S128A;del44-49;L38K)
- pKa (Lys38): ≥ 10.4
- pKa (Asp143; [11]): 4.0
- pKa (Glu142; [11]): 4.6
- pKa (Glu135; [11]): 3.9
- pKa (Glu43 [7]): 4.5
- pKa (Glu52; [11]): 4.1
- pKa (Asp40 [8]): 3.8
- pKa (Glu122; [11]): 3.9
- pKa (Glu57; [11]): 3.6
- pKa (Glu10; [11]): 3.1
- pKa (Asp19; [11]): < 2.5
- pKa (Asp21; [11]): 6.5
- pKa (Asp95; [11]): 2.1
- pKa (Asp83; [11]): < 2.5
- pKa (Asp146; [11]): 4.0
- pKa (Glu129; [11]): 3.8
- pKa (Glu73; [11]): 3.3
- pKa (Glu67; [11]): 3.9
- pKa (Glu101; [11]): 3.9

Substance: Staphylococcal nuclease, Δ+PHS variant (Staphylococcus aureus; G50F;V51N;P117G;H124L;S128A;del44-49)
- pKa (His8): 6.5
- pKa (Asp40 [9]): 3.9
- pKa (Asp143; [12]): 3.8
- pKa (Glu142; [12]): 4.5
- pKa (Glu135; [12]): 3.8
- pKa (Glu52; [12]): 3.9
- pKa (Glu122; [12]): 3.9
- pKa (Asp77; [12]): < 2.5
- pKa (Glu57; [12]): 3.5
- pKa (Glu10; [12]): 2.8
- pKa (Asp19; [12]): 2.2
- pKa (Asp21; [12]): 6.5
- pKa (Asp95; [12]): 2.2
- pKa (Asp83; [12]): < 2.5
- pKa (Asp146; [12]): 3.9
- pKa (Glu129; [12]): 3.8
- pKa (Glu75; [12]): 3.3
- pKa (Glu73; [12]): 3.3
- pKa (Glu67; [12]): 3.8
- pKa (Glu101; [12]): 3.8
- pKa (Glu43 [10]): 4.3
